Reference: PMC11866011

How the values were obtained:
[1] = biological target: EncA-157ST (Myxococcus xanthus encapsulin shell protein EncA with the SpyTag peptide inserted between residues 157 and 158) (Myxococcus xanthus | Streptococcus pyogenes) (UniProt Q1D6H4); test: negative-stain TEM; purified empty (unloaded) nanocompartments, 0.01-0.03 mg/mL, uranyl acetate 0.5% stain; subunit number read from the particle diameter
[2] = biological target: EncA-157ST (Myxococcus xanthus encapsulin shell protein EncA with the SpyTag peptide inserted between residues 157 and 158) (Myxococcus xanthus | Streptococcus pyogenes) (UniProt Q1D6H4); test: negative-stain TEM; purified nanocompartments loaded with sfGFP-CLP (coexpressed), 0.01-0.03 mg/mL, uranyl acetate 0.5% stain; subunit number read from the particle diameter
[3] = biological target: EncA-ST (Myxococcus xanthus encapsulin shell protein EncA with the SpyTag peptide fused to its C-terminus) (Myxococcus xanthus | Streptococcus pyogenes); test: negative-stain TEM; purified empty (unloaded) nanocompartments, 0.01-0.03 mg/mL, uranyl acetate 0.5% stain; subunit number read from the particle diameter
[4] = biological target: EncA-ST (Myxococcus xanthus encapsulin shell protein EncA with the SpyTag peptide fused to its C-terminus) (Myxococcus xanthus | Streptococcus pyogenes); test: negative-stain TEM; purified nanocompartments loaded with sfGFP-CLP (coexpressed), 0.01-0.03 mg/mL, uranyl acetate 0.5% stain; subunit number read from the particle diameter

Substance | stoichiometry N [1] | stoichiometry N [2] | stoichiometry N [3] | stoichiometry N [4]
EncA-157ST (Myxococcus xanthus encapsulin shell protein EncA with the SpyTag peptide inserted between residues 157 and 158) (from UniProt Q1D6H4 1-157; Q1D6H4 158-287) | 60 subunits | 180 subunits | – | –
EncA-ST (Myxococcus xanthus encapsulin shell protein EncA with the SpyTag peptide fused to its C-terminus) | – | – | 60 subunits | 180 subunits
